{"source": "paper PMC7672554", "about": "“Selective Metal Ion Utilization Contributes to the Transformation of the Activity of Yeast Polymerase η from DNA Polymerization toward RNA Polymerization” (International Journal of Molecular Sciences, 2020)", "assay_in_all_cases": "steady-state primer extension, Cy3-labelled RNA primer/DNA template, gel quantitation", "format_in_all_cases": "biochemical, Saccharomyces cerevisiae", "key": {"[1]": {"substrate": "Nc1ccn([C@@H]2O[C@H](COP(=O)(O)OP(=O)(O)OP(=O)(O)O)[C@@H](O)[C@H]2O)c(=O)n1", "details": "RNA primer, template G (correct pair), 5 mM Mn2+, 20 nM primer/template, 25 mM Tris/HCl pH 7.5, 30 °C", "source_text": "(§1) steady-state primer extension, Cy3-labelled RNA primer/DNA template, gel quantitation on Polη (yeast Polymerase η)"}, "[2]": {"substrate": "Nc1nc2c(ncn2[C@@H]2O[C@H](COP(=O)(O)OP(=O)(O)OP(=O)(O)O)[C@@H](O)[C@H]2O)c(=O)[nH]1", "details": "RNA primer, template C (correct pair), 5 mM Mn2+, 20 nM primer/template, 25 mM Tris/HCl pH 7.5, 30 °C", "source_text": "as §1"}, "[3]": {"substrate": "Nc1ncnc2c1ncn2[C@@H]1O[C@H](COP(=O)(O)OP(=O)(O)OP(=O)(O)O)[C@@H](O)[C@H]1O", "details": "RNA primer, template T (correct pair), 5 mM Mn2+, 20 nM primer/template, 25 mM Tris/HCl pH 7.5, 30 °C", "source_text": "as §1"}, "[4]": {"substrate": "O=c1ccn([C@@H]2O[C@H](COP(=O)(O)OP(=O)(O)OP(=O)(O)O)[C@@H](O)[C@H]2O)c(=O)[nH]1", "details": "RNA primer, template A (correct pair), 5 mM Mn2+, 20 nM primer/template, 25 mM Tris/HCl pH 7.5, 30 °C", "source_text": "as §1"}}, "data": [{"protein": "Polη (yeast Polymerase η) (Saccharomyces cerevisiae S288C) (protein, overexpressed in yeast as N-terminal GST fusion, GST removed with PreScission protease; no truncation stated) MSKFTWKELIQLGSPSKAYESSLACIAHIDMNAFFAQVEQMRCGLSKEDPVVCVQWNSIIAVSYAARKYGISRMDTIQEALKKCSNLIPIHTAVFKKGEDFWQYHDGCGSWVQDPAKQISVEDHKVSLEPYRRESRKALKIFKSACDLVERASIDEVFLDLGRICFNMLMFDNEYELTGDLKLKDALSNIREAFIGGNYDINSHLPLIPEKIKSLKFEGDVFNPEGRDLITDWDDVILALGSQVCKGIRDSIKDILGYTTSCGLSSTKNVCKLASNYKKPDAQTIVKNDCLLDFLDCGKFEITSFWTLGGVLGKELIDVLDLPHENSIKHIRETWPDNAGQLKEFLDAKVKQSDYDRSTSNIDPLKTADLAEKLFKLSRGRYGLPLSSRPVVKSMMSNKNLRGKSCNSIVDCISWLEVFCAELTSRIQDLEQEYNKIVIPRTVSISLKTKSYEVYRKSGPVAYKGINFQSHELLKVGIKFVTDLDIKGKNKSYYPLTKLSMTITNFDIIDLQKTVVDMFGNQVHTFKSSAGKEDEEKTTSSKADEKTPKLECCKYQVTFTDQKALQEHADYHLALKLSEGLNGAEESSKNLSFGEKRLLFSRKRPNSQHTATPQKKQVTSSKNILSFFTRKK", "values": [{"measurement": "Km", "setting": "[1]", "result": "1.89 ± 0.42", "unit": "µM"}, {"measurement": "kcat", "setting": "[1]", "result": "0.078 ± 0.00367", "unit": "s⁻¹"}, {"measurement": "kcat/Km", "setting": "[1]", "result": 41300, "unit": "M⁻¹ s⁻¹"}, {"measurement": "Km", "setting": "[2]", "result": "2.55 ± 0.63", "unit": "µM"}, {"measurement": "kcat", "setting": "[2]", "result": "0.0845 ± 0.0045", "unit": "s⁻¹"}, {"measurement": "kcat/Km", "setting": "[2]", "result": 33200, "unit": "M⁻¹ s⁻¹"}, {"measurement": "Km", "setting": "[3]", "result": "2.51 ± 0.64", "unit": "µM"}, {"measurement": "kcat", "setting": "[3]", "result": "0.0435 ± 0.00233", "unit": "s⁻¹"}, {"measurement": "kcat/Km", "setting": "[3]", "result": 17300, "unit": "M⁻¹ s⁻¹"}, {"measurement": "Km", "setting": "[4]", "result": "12.8 ± 2.25", "unit": "µM"}, {"measurement": "kcat", "setting": "[4]", "result": "0.0585 ± 0.00317", "unit": "s⁻¹"}, {"measurement": "kcat/Km", "setting": "[4]", "result": 4500, "unit": "M⁻¹ s⁻¹"}]}]}
